Here are results for 97 variants from the supplement of paper PMC10567573.

First the molecules themselves.
B1: ZMYND11 (parent)
chain: YCSIKCQQEHWHAEHKRTCRRKR
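Note: lentivirally expressed fusions sorted by FACS into six bins by GFP to DsRed ratio, PSI derived from sequencing read proportions per bin multiplied by bin number.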

In this data set the parent is B1. As to the kind of experiment: protein stability index of a GFP-peptide fusion (GPS, HEK-293T) (PSI 1-6); higher = more stable. To be noted: c terminus: native.
For YCSIKCDQEHWHAEHKRTCRRKR [Q7D], the protein stability index turned out to be 2.56.
Next, YCSIKCCQEHWHAEHKRTCRRKR [Q7C]: 1.95; YCSIKCNQEHWHAEHKRTCRRKR [Q7N]: 2.38.
Next, YCSIKCAQEHWHAEHKRTCRRKR [Q7A]: 2.36.
Turning to YCSIKCHQEHWHAEHKRTCRRKR [Q7H], the protein stability index worked out at 2.69.
With YCSIKCLQEHWHAEHKRTCRRKR [Q7L] the figure was 2.21; with YCSIKCSQEHWHAEHKRTCRRKR [Q7S], 3.18; with YCSIKCEQEHWHAEHKRTCRRKR [Q7E], 2.42.
Next, YCSIKCIQEHWHAEHKRTCRRKR [Q7I]: 2.44; YCSIKCYQEHWHAEHKRTCRRKR [Q7Y]: 2.35.
Take YCSIKCFQEHWHAEHKRTCRRKR [Q7F]: the protein stability index was determined as 1.67.
In the case of YCSIKCPQEHWHAEHKRTCRRKR [Q7P], the protein stability index worked out at 2.2.
For the variant YCSIKCWQEHWHAEHKRTCRRKR [Q7W], the protein stability index is 1.53.
Regarding YCSIKCVQEHWHAEHKRTCRRKR [Q7V], the protein stability index was 1.37.
Consider YCSIKCGQEHWHAEHKRTCRRKR [Q7G], for which the protein stability index amounted to 2.46.
With YCSIKCTQEHWHAEHKRTCRRKR [Q7T] the figure was 2.63.
For the variant YCSIKCKQEHWHAEHKRTCRRKR [Q7K], the protein stability index stood at 3.05.
Next, YCSIKCMQEHWHAEHKRTCRRKR [Q7M]: 2.15; YCSIKIQQEHWHAEHKRTCRRKR [C6I]: 1.78.
As for YCSIKDQQEHWHAEHKRTCRRKR [C6D], the protein stability index worked out at 2.69.
With YCSIKNQQEHWHAEHKRTCRRKR [C6N] the figure was 1.76; with YCSIKMQQEHWHAEHKRTCRRKR [C6M], 1.9; with YCSIKRQQEHWHAEHKRTCRRKR [C6R], 1.56.
With YCSIKKQQEHWHAEHKRTCRRKR [C6K] the figure was 2.69; with YCSIKAQQEHWHAEHKRTCRRKR [C6A], 2.39; with YCSIKLQQEHWHAEHKRTCRRKR [C6L], 1.75.
With YCSIKQQQEHWHAEHKRTCRRKR [C6Q], the protein stability index worked out at 1.59.
With YCSIKYQQEHWHAEHKRTCRRKR [C6Y] the figure was 2.07.
In the case of YCSIKPQQEHWHAEHKRTCRRKR [C6P], the protein stability index came to 2.57.
Next, YCSIKGQQEHWHAEHKRTCRRKR [C6G]: 2.74; YCSIKTQQEHWHAEHKRTCRRKR [C6T]: 1.87.
With YCSIKEQQEHWHAEHKRTCRRKR [C6E] the figure was 2.87; with YCSIKFQQEHWHAEHKRTCRRKR [C6F], 1.96.
Turning to YCSIKSQQEHWHAEHKRTCRRKR [C6S], the protein stability index was 2.38.
Next, YCSIKWQQEHWHAEHKRTCRRKR [C6W]: 1.77; YCSIKHQQEHWHAEHKRTCRRKR [C6H]: 2.9.
With YCSIKVQQEHWHAEHKRTCRRKR [C6V], the protein stability index was found to be 2.59.
As for YCSIKCQQEHWHAEKKRTCRRKR [H15K], the protein stability index came to 2.01.
YCSIKCQQEHWHAECKRTCRRKR [H15C]: the protein stability index was found to be 2.38.
With YCSIKCQQEHWHAEQKRTCRRKR [H15Q] the figure was 2.06.
Consider YCSIKCQQEHWHAERKRTCRRKR [H15R], for which the protein stability index was determined as 2.18.
Consider YCSIKCQQEHWHAEAKRTCRRKR [H15A], for which the protein stability index was 1.9.
In the case of YCSIKCQQEHWHAEIKRTCRRKR [H15I], the protein stability index is 1.95.
YCSIKCQQEHWHAEPKRTCRRKR [H15P]: the protein stability index turned out to be 2.71.
For YCSIKCQQEHWHAEEKRTCRRKR [H15E], the protein stability index amounted to 2.79.
Next, YCSIKCQQEHWHAELKRTCRRKR [H15L]: 3.01; YCSIKCQQEHWHAENKRTCRRKR [H15N]: 2.4; YCSIKCQQEHWHAEFKRTCRRKR [H15F]: 1.44.
Next, YCSIKCQQEHWHAEMKRTCRRKR [H15M]: 1.6; YCSIKCQQEHWHAEGKRTCRRKR [H15G]: 2.44; YCSIKCQVEHWHAEHKRTCRRKR [Q8V]: 1.78.
As for YCSIKCQEEHWHAEHKRTCRRKR [Q8E], the protein stability index came out at 2.34.
Next, YCSIKCQPEHWHAEHKRTCRRKR [Q8P]: 2.46; YCSIKCQYEHWHAEHKRTCRRKR [Q8Y]: 2.08; YCSIKCQWEHWHAEHKRTCRRKR [Q8W]: 1.85.
YCSIKCQMEHWHAEHKRTCRRKR [Q8M]: the protein stability index is 2.48.
With YCSIKCQTEHWHAEHKRTCRRKR [Q8T] the figure was 1.86; with YCSIKCQNEHWHAEHKRTCRRKR [Q8N], 2.55.
On to YCSIKCQKEHWHAEHKRTCRRKR [Q8K], for which the protein stability index came to 2.77.
With YCSIKCQCEHWHAEHKRTCRRKR [Q8C] the figure was 2.51; with YCSIKCQSEHWHAEHKRTCRRKR [Q8S], 2.51.
Next, YCSIKCQLEHWHAEHKRTCRRKR [Q8L]: 1.72; YCSIKCQFEHWHAEHKRTCRRKR [Q8F]: 2.84.
Next, YCSIKCQGEHWHAEHKRTCRRKR [Q8G]: 2.47; YCSIKCQREHWHAEHKRTCRRKR [Q8R]: 2.2; YCSIKCQAEHWHAEHKRTCRRKR [Q8A]: 2.33.
YCSIKCQIEHWHAEHKRTCRRKR [Q8I]: the protein stability index came to 1.49.
With YCSIKCQDEHWHAEHKRTCRRKR [Q8D], the protein stability index is 2.7.
Next, YCSIKCQHEHWHAEHKRTCRRKR [Q8H]: 2.21; YCSIKCQQEHWHDEHKRTCRRKR [A13D]: 3.16; YCSIKCQQEHWHREHKRTCRRKR [A13R]: 2.49.
Regarding YCSIKCQQEHWHQEHKRTCRRKR [A13Q], the protein stability index was 2.18.
As for YCSIKCQQEHWHCEHKRTCRRKR [A13C], the protein stability index came out at 2.15.
Turning to YCSIKCQQEHWHGEHKRTCRRKR [A13G], the protein stability index amounted to 2.62.
Turning to YCSIKCQQEHWHVEHKRTCRRKR [A13V], the protein stability index came to 2.89.
With YCSIKCQQEHWHTEHKRTCRRKR [A13T], the protein stability index was 1.98.
For YCSIKCQQEHWHWEHKRTCRRKR [A13W], the protein stability index turned out to be 1.32.
With YCSIKCQQEHWHIEHKRTCRRKR [A13I] the figure was 2.58.
With YCSIKCQQEHWHYEHKRTCRRKR [A13Y] the figure was 2.1.
Consider YCSIKCQQEHWHMEHKRTCRRKR [A13M], for which the protein stability index was found to be 2.86.
Regarding YCSIKCQQEHWHNEHKRTCRRKR [A13N], the protein stability index stood at 2.78.
For the variant YCSIKCQQEHWHFEHKRTCRRKR [A13F], the protein stability index amounted to 1.83.
YCSIKCQQEHWHHEHKRTCRRKR [A13H]: the protein stability index was 3.55.
With YCSIKCQQEHWHKEHKRTCRRKR [A13K] the figure was 2.65; with YCSIKCQQEHWHEEHKRTCRRKR [A13E], 2.16; with YCSIKCQQEHWHPEHKRTCRRKR [A13P], 1.9.
With YCSIKCQQEHWHLEHKRTCRRKR [A13L] the figure was 1.61; with YCSIKCQQWHWHAEHKRTCRRKR [E9W], 2.37.
With YCSIKCQQMHWHAEHKRTCRRKR [E9M], the protein stability index was 1.53.
With YCSIKCQQPHWHAEHKRTCRRKR [E9P] the figure was 2.11; with YCSIKCQQLHWHAEHKRTCRRKR [E9L], 2.07.
Next, YCSIKCQQCHWHAEHKRTCRRKR [E9C]: 3.31; YCSIKCQQHHWHAEHKRTCRRKR [E9H]: 2.78.
In the case of YCSIKCQQVHWHAEHKRTCRRKR [E9V], the protein stability index turned out to be 2.93.
Next, YCSIKCQQGHWHAEHKRTCRRKR [E9G]: 2.89; YCSIKCQQAHWHAEHKRTCRRKR [E9A]: 2.65.
As for YCSIKCQQRHWHAEHKRTCRRKR [E9R], the protein stability index was determined as 2.6.
